Measurements reported in the Human Domainome abundance scans (Beltran et al. 2025).
± gives the uncertainty stated by the source.

B1: POU domain, class 4, transcription factor 1, residues 266 to 347; numbered along this chain, Q01851 (parent)
chain: RELEAFAERFKQRRIKLGVTQADVGSALANLKIPGVGSLSQSTICRFESLTLSHNNMIALKPILQAWLEEAEGAQREKMNKP
B2: Syntaxin-binding protein 4, residues 493 to 538; numbered along this chain, Q6ZWJ1 (parent)
chain: LDMDCLPYGWEEAYTADGIKYFINHVTQTTSWIHPVMSVLNLSRSE

Variants of: B1
Assay: abundance fitness (aPCA) (normalised: wild type 0, dead -1); higher = more abundant; growth selection in yeast, the domain comes from the species named
Conditions: Homo sapiens

Abundance fitness: each site, then its substitutions
P82: L -0.123 ± 0.18, M 0.008 ± 0.21, T -0.001 ± 0.082, W -0.116 ± 0.14, Y 0.095 ± 0.34, Q 0.01 ± 0.071, V -0.053 ± 0.095

Variants of: B2
Assay: as above
Conditions: Homo sapiens

Abundance fitness, by site and new letter:
P7: F -0.616 ± 0.13, H -0.669 ± 0.15, N -0.714 ± 0.16, G -0.719 ± 0.086, S -0.834 ± 0.1, Q -0.903 ± 0.14
W32: F -0.558 ± 0.16, E -0.628 ± 0.12, Y -0.33 ± 0.17, K -0.576 ± 0.12, P -0.581 ± 0.14
N41: A -0.313 ± 0.087, W -0.197 ± 0.093, T -0.23 ± 0.12, E -0.227 ± 0.1, L -0.684 ± 0.1, H -0.681 ± 0.2, K -0.635 ± 0.15, D 0.174 ± 0.12
A16: N -0.283 ± 0.088, M -0.5 ± 0.12, Q -0.182 ± 0.12, S -0.011 ± 0.076, I -0.716 ± 0.09, R -0.66 ± 0.09
V36: C 0.585 ± 0.11, P -0.597 ± 0.12, K 0.746 ± 0.11, I -0.598 ± 0.15, F -0.444 ± 0.12
S38: W -0.264 ± 0.1, F -0.531 ± 0.13, L -0.78 ± 0.11, V -0.502 ± 0.094, N -0.046 ± 0.13, A -0.649 ± 0.1, E -0.693 ± 0.13, D -0.004 ± 0.13, H -0.678 ± 0.21, R -0.418 ± 0.085
A13: I -0.998 ± 0.21, D -1.11 ± 0.18, C -0.676 ± 0.12, V -0.686 ± 0.084, G -0.746 ± 0.081, E -0.923 ± 0.11, F -0.946 ± 0.19, Q -0.677 ± 0.13
Y21: M -1.03 ± 0.17, A -0.952 ± 0.12, F -0.91 ± 0.24, G -0.873 ± 0.092, W -0.674 ± 0.099, C -0.908 ± 0.14
T30: G -0.632 ± 0.085, D -0.859 ± 0.14, F -0.998 ± 0.26, E -0.857 ± 0.13, R -0.719 ± 0.093, C -0.142 ± 0.14
L6: E -0.541 ± 0.1, P -0.608 ± 0.11, Y -0.709 ± 0.16, M -0.692 ± 0.12, I -0.965 ± 0.2, D -0.405 ± 0.15, F -0.604 ± 0.17, G -0.754 ± 0.087
I33: E 0.511 ± 0.12, L -0.245 ± 0.089, N -0.243 ± 0.19, K -0.276 ± 0.13, Q 0.064 ± 0.14, P -0.897 ± 0.15, M -0.091 ± 0.15
Y8: W -0.371 ± 0.091, D 0.326 ± 0.1, T -0.122 ± 0.086, Q -0.119 ± 0.1, P 0.157 ± 0.08, I -0.08 ± 0.094, S 0.138 ± 0.075, R -0.34 ± 0.076, F -0.258 ± 0.098, G -0.028 ± 0.073
W10: F -0.796 ± 0.14, N -0.615 ± 0.15, G -0.716 ± 0.078, M -0.918 ± 0.13, L -0.844 ± 0.092, D -0.68 ± 0.13, S -0.816 ± 0.096
P35: F -0.895 ± 0.16, V -0.882 ± 0.1, S -0.661 ± 0.11, A -1.01 ± 0.11, K -0.533 ± 0.15, M -0.814 ± 0.14
T27: Q -0.344 ± 0.14, N -0.407 ± 0.2, A -0.513 ± 0.096, F 0.071 ± 0.25
H34: N -0.141 ± 0.13, K -0.686 ± 0.15, Y -0.689 ± 0.15, T -0.877 ± 0.13, V -1 ± 0.14, Q -0.555 ± 0.15, W -1.11 ± 0.15
D17: I -0.63 ± 0.11, T -0.793 ± 0.12, G -0.76 ± 0.084, K -0.547 ± 0.1, R -0.697 ± 0.085, M -0.88 ± 0.12, L -0.823 ± 0.093, H -0.691 ± 0.18, Y -0.881 ± 0.14, P -0.867 ± 0.12
I19: W -0.566 ± 0.1, V 0.054 ± 0.076, H 0.293 ± 0.11
G18: M -0.846 ± 0.14, Q -0.661 ± 0.12, I -0.488 ± 0.22, W -0.493 ± 0.091, C -0.902 ± 0.12
R44: A -0.134 ± 0.098, W -0.527 ± 0.15, D 0.169 ± 0.12, I -1.3 ± 0.33, P 0.041 ± 0.12
T15: Y -0.65 ± 0.13, S -0.672 ± 0.085, I -0.772 ± 0.1, D -0.509 ± 0.13, P -0.531 ± 0.093, Q -0.706 ± 0.1, F -0.883 ± 0.14, W -0.814 ± 0.096
I23: R -0.241 ± 0.081, H -0.833 ± 0.42, E -1.08 ± 0.18, Y -0.209 ± 0.16, D -0.731 ± 0.28, C -0.892 ± 0.15, F -0.715 ± 0.19
Q28: T -0.81 ± 0.13, D -0.467 ± 0.13, C -0.573 ± 0.13, N 0.159 ± 0.12, I -0.664 ± 0.16, L -1 ± 0.13, H -0.204 ± 0.13
L42: H 0.52 ± 0.14, S 0.162 ± 0.095, W -0.292 ± 0.1, T 0.048 ± 0.12, M -0.046 ± 0.11, G 0.174 ± 0.077
V39: C -0.134 ± 0.16, T 0.04 ± 0.11, F 0.072 ± 0.15, W -0.55 ± 0.13, H -0.263 ± 0.18, I -0.599 ± 0.15, M -0.174 ± 0.12, K -0.205 ± 0.12, G 0.352 ± 0.086, Q 0.223 ± 0.12, N 0.168 ± 0.18
G9: Q -0.908 ± 0.13, N -0.849 ± 0.14, P -0.397 ± 0.092, E -0.184 ± 0.088, R -0.846 ± 0.088, F -0.926 ± 0.15, M -0.865 ± 0.12, A -0.803 ± 0.087, Y -0.826 ± 0.14, T -0.833 ± 0.099, L -0.636 ± 0.084, I -0.459 ± 0.19, H -0.86 ± 0.15
F22: Q -0.823 ± 0.16, G -0.782 ± 0.09, P -0.895 ± 0.15, A -0.956 ± 0.11, D -0.794 ± 0.22, E -0.789 ± 0.14, K -0.637 ± 0.14, S -0.832 ± 0.11, R -0.872 ± 0.092, N -0.787 ± 0.19, T -0.458 ± 0.1, M -0.44 ± 0.14
E11: Y -0.909 ± 0.14, R -0.537 ± 0.077, Q -0.4 ± 0.097, M -0.793 ± 0.11, I -0.502 ± 0.13, C -0.861 ± 0.11, P -0.78 ± 0.11, F -0.555 ± 0.12
L1: N -0.101 ± 0.39, H -0.269 ± 0.33, S 0.28 ± 0.13, T -0.004 ± 0.27
E46: D -0.243 ± 0.13, A -0.517 ± 0.18, F -0.308 ± 0.3, G 0.23 ± 0.12, Q 0.008 ± 0.5
Y14: F -0.659 ± 0.14, P -1 ± 0.12, V -0.411 ± 0.08, N -0.994 ± 0.17, C -0.586 ± 0.1, K -0.907 ± 0.14, S -0.462 ± 0.08, M -0.614 ± 0.1
L40: C -0.154 ± 0.11, Y -0.584 ± 0.16, K 0.041 ± 0.11, T -0.319 ± 0.11, D -0.471 ± 0.17, H 0.07 ± 0.19, V -0.273 ± 0.096, A -0.127 ± 0.11, I -0.816 ± 0.16
E12: W -0.744 ± 0.1, P -0.795 ± 0.14, D -0.89 ± 0.15, K -0.953 ± 0.13, L -0.804 ± 0.099, R -0.804 ± 0.081, C -0.496 ± 0.1, A -0.767 ± 0.1
S31: M -0.989 ± 0.14, F -0.734 ± 0.12, V -0.373 ± 0.097, L -0.788 ± 0.11, E -0.724 ± 0.16, H -0.94 ± 0.18, W -0.922 ± 0.14
H25: R 0.108 ± 0.085, D -1.1 ± 0.22, I -0.754 ± 0.27, T 0.033 ± 0.18, M -0.94 ± 0.22, Y -0.941 ± 0.21, W -0.916 ± 0.14, S -0.006 ± 0.11, C -0.824 ± 0.18, L -0.931 ± 0.15
V26: K -0.29 ± 0.27, G 0.022 ± 0.08, L -0.482 ± 0.1, T 0.168 ± 0.12, D -0.087 ± 0.14
N24: V -0.74 ± 0.11, Q -0.923 ± 0.2, C -0.798 ± 0.16, L -0.932 ± 0.16, Y -0.638 ± 0.23, R -0.876 ± 0.12
D4: W -0.499 ± 0.097, N -0.098 ± 0.088, I -0.639 ± 0.17, H -0.835 ± 0.17, S -0.221 ± 0.082, G -0.348 ± 0.077, L -0.638 ± 0.094, F -0.613 ± 0.16
K20: P -0.141 ± 0.094, T -0.767 ± 0.13, M -0.848 ± 0.12, Q -0.897 ± 0.13, G -0.857 ± 0.087
T29: I 0.226 ± 0.1, G -0.777 ± 0.24, Q -0.956 ± 0.39, C 0.271 ± 0.12, K -0.759 ± 0.46, Y -0.61 ± 0.13, H -0.847 ± 0.13, A -0.486 ± 0.15, V 0.766 ± 0.1
C5: Y -0.268 ± 0.088, M -0.173 ± 0.11, R -0.18 ± 0.078, A 0.238 ± 0.084, P -0.291 ± 0.12, I -0.113 ± 0.15
M37: E 0.327 ± 0.095, T 0.146 ± 0.11, A 0.219 ± 0.093, V -0.226 ± 0.1, L -0.085 ± 0.092, Q 0.397 ± 0.12, N 0.404 ± 0.21, R 0.558 ± 0.079
D2: Q -0.48 ± 0.12, N -0.388 ± 0.094, T -0.334 ± 0.12, I -0.698 ± 0.16, G -0.366 ± 0.082, P -0.985 ± 0.16
M3: Y -0.458 ± 0.12, H -0.117 ± 0.099, R 0.027 ± 0.076, T 0.287 ± 0.086, C 0.117 ± 0.089, W -0.692 ± 0.11
S43: V -0.44 ± 0.11, H -0.021 ± 0.25, E 0.119 ± 0.11, C -0.518 ± 0.13, N 0.116 ± 0.16, T -0.183 ± 0.14
S45: L -0.509 ± 0.11, D -0.06 ± 0.14, R -0.173 ± 0.11, K -0.169 ± 0.18, M -0.986 ± 0.29, T -0.089 ± 0.11, A -0.186 ± 0.11
